Laboratory results from patent US11214614B2, “LTBP complex-specific inhibitors of TGFβ and uses thereof” (Scholar Rock, Inc., priority 2019, dated 2022).

How the values were obtained:
[1] = literature reports (Frazier et al. 2007; Stauber et al. 2014, chronic ≥3 months); cited from earlier work
[2] = Four-week toxicology study in rats; format: in vivo, rat
From the text: Maximally tolerated dose (MTD): The term MTD generally refers to, in the context of safety/toxicology considerations, the highest amount of a test article (such as a TGFβ1 inhibitor) evaluated with no observed adverse effect level (NOAEL).
Therapeutic window: The term “therapeutic window” refers to a range of doses/concentrations that produces therapeutic response without causing significant/observable/unacceptable adverse effect (e.g., within adverse effects that are acceptable or tolerable) in subjects. Therapeutic window may be calculated as a ratio between […].
Toxicity: As used herein, the term “toxicity” or “toxicities” refers to unwanted in vivo effects in patients associated with a therapy administered to the patients, such as undesirable side effects and adverse events. “Tolerability” refers to a level of toxicities associated with a therapy or therapeutic regimen, which can be reasonably tolerated by patients, without discontinuing the therapy due to the toxicities (i.e., acceptable level of toxicities). Typically, toxicity/toxicology studies are carried out in one or more preclinical models prior to clinical development to assess safety profiles of a drug candidate (e.g., monoclonal antibody therapy). […]

[3] = molecular target: T1, Murine LTBP3 proTGFβ1 (Mus musculus, UniProt P04202+Q61810); assay: SPR (Biacore 8K) monovalent binding kinetics of Fabs, biotinylated antigen captured; conditions: Fab, Murine LTBP3 proTGFb1; average of two replicate experiments
T1 construct: biotin (complex biotinylated)
T1 sequence (P04202 30-390): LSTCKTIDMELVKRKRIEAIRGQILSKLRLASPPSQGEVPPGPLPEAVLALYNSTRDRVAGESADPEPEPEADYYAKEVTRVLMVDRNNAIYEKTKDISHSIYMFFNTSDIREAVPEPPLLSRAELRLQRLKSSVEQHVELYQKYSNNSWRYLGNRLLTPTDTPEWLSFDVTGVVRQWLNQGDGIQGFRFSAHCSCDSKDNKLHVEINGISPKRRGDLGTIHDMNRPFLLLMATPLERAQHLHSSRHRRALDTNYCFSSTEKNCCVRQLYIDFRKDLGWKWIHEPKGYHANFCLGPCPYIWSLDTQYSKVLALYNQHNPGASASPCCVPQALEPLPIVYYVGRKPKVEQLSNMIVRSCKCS
T1 sequence (Q61810 with tags, fused parts or gaps with the stated changes limits assumed): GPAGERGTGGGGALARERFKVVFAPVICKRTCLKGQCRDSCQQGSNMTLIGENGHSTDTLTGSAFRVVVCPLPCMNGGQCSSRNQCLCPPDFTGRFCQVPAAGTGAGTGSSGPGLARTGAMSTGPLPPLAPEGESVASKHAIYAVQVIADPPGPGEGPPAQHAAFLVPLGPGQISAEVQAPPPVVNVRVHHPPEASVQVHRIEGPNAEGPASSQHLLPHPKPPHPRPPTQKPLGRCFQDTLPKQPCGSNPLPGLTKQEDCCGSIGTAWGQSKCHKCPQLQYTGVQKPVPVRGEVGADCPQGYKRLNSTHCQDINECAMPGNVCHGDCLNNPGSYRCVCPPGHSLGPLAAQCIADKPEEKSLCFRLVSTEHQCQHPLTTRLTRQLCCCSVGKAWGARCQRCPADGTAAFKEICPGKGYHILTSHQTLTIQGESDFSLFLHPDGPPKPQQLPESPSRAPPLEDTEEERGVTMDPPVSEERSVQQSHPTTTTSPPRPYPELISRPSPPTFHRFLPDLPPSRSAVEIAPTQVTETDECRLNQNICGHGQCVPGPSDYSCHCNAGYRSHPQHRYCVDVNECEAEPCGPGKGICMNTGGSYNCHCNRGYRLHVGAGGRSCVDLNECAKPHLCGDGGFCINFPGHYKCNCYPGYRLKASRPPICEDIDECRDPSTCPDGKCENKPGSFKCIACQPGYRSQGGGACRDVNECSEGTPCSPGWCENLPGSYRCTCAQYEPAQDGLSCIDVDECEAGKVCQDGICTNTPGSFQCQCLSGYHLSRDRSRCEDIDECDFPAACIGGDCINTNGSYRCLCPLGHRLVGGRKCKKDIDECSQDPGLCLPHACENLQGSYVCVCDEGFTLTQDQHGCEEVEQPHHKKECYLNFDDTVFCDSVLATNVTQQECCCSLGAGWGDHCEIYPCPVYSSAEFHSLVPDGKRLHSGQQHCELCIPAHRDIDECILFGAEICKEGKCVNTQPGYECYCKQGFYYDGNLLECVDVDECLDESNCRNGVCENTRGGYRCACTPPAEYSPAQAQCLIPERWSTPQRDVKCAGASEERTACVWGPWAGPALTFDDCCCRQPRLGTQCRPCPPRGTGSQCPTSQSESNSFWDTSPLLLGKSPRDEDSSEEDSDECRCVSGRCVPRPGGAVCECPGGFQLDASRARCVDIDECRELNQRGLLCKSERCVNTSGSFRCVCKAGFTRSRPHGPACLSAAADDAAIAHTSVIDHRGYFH
Description: (§1) A Biacore 8K system was employed to determine the monovalent binding affinity and the kinetic parameters for antigen binding of test antibodies. Association and dissociation kinetics of Fab fragments SR-AB42-HuFab, SR-AB63-HuFab and SR-AB43-HuFab to antigen complexes were measured, and resulting ka, kd and KD are provided below. Briefly, the binding kinetics were evaluated by surface plasmon resonance using Biacore 8K (GE Healthcare). Biotinylated capture antigens were immobilized to the chip (10 nM, ˜200 RU loading). A Biotin CAPture sensor chip was used to capture the biotinylated antigens. Fabs at 10, 5, 2.5, 1.25, and 0.6 nM concentrations were injected over the captured antigens. 0 nM was used as a reference. Affinities of LTBP antibodies to GARP and LRRC33 were confirmed using higher concentration of Fabs (100, 50, 25, 12.5, 6.25 nM). 0 nM was used as a reference. Multi-cycle kinetics was employed where each analyte concentration was injected in a separate cycle and the sensor chip surface was regenerated after each cycle. All the assays were carried out in freshly prepared 1×HBS-EP+buffer (10 mM HEPES, 150 mM NaCl, 3 mM EDTA, 0.05% Tween20, pH 7.4). Data were fit globally to a 1:1 binding model to obtain the kinetic parameters. The sensorgram for 0 nM analyte concentration was used as reference.
(§2) • 96 well plates—Greinerbio-one REF 650101 • Microplate Foils—GE Healthcare—CAT #28-9758-16 • Biotin CAPture Kit GE Healthcare product number 28920233 • Biacore running buffer—supplied as a 20× solution, diluted in Milli-Q water, TEKnova CAT #H8022 Method:
(§3) These experiments were performed using the Biacore 8K using the method “multi-cycle kinetics/affinity using Biotin CAPture kit.”
(§4) Data collection rate was set to 10 Hz and the Biotin CAPture step was performed for 300 seconds with a flow rate of 2 μL/minute. The Biotin CAPture reagent was used after a 1:5 dilution in 1× Biacore running buffer. Biotinylated ligands (the various complexes of TGFβ1) were utilized at a concentration of 10 nM and were immobilized to the sensor chip for 180 seconds with a flow rate of 10 μL/minute. The analytes, which are each of the Fabs, were tested at 10, 5, 2.5, 1.25, and 0.625 nM with a 0 nM control included. Analyte contact time was 120 seconds and the dissociation time was 900 seconds. The regeneration cycle utilized was 120 seconds with a flow rate of 10 μL/minute.
(§5) The evaluation method used was “multi-cycle affinity using capture” and a 1:1 binding model was used. […] Global fits were utilized for every KD determination.

[4] = molecular target: huGARP proTGFβ1 (Homo sapiens, UniProt P01137); assay: as above; parameters: biotin (complex biotinylated); conditions: Fab, huGARP proTGFb1
Description: as §1, §2, §3, §4, §5

[5] = molecular target: huLTBP1 proTGFβ1 (Homo sapiens, UniProt P01137+Q14766); assay: as above; parameters: biotin (complex biotinylated); conditions: Fab, huLTBP1 proTGFβ1; SR-AB42-HuFab average of five, SR-AB63-HuFab average of four replicate experiments
Chain of huLTBP1 proTGFβ1 (P01137 30-390): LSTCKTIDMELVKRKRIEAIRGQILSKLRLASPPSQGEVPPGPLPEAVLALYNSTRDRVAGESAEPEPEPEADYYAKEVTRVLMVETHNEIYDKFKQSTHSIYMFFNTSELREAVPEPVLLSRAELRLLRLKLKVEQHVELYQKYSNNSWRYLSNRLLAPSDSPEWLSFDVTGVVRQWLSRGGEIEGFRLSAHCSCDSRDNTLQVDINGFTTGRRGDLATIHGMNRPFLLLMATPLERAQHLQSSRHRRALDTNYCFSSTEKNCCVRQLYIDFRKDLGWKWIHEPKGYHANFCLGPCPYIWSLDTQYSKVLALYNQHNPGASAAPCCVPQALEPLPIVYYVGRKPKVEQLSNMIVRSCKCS
Chain of huLTBP1 proTGFβ1 (Q14766 347-1721 limits assumed): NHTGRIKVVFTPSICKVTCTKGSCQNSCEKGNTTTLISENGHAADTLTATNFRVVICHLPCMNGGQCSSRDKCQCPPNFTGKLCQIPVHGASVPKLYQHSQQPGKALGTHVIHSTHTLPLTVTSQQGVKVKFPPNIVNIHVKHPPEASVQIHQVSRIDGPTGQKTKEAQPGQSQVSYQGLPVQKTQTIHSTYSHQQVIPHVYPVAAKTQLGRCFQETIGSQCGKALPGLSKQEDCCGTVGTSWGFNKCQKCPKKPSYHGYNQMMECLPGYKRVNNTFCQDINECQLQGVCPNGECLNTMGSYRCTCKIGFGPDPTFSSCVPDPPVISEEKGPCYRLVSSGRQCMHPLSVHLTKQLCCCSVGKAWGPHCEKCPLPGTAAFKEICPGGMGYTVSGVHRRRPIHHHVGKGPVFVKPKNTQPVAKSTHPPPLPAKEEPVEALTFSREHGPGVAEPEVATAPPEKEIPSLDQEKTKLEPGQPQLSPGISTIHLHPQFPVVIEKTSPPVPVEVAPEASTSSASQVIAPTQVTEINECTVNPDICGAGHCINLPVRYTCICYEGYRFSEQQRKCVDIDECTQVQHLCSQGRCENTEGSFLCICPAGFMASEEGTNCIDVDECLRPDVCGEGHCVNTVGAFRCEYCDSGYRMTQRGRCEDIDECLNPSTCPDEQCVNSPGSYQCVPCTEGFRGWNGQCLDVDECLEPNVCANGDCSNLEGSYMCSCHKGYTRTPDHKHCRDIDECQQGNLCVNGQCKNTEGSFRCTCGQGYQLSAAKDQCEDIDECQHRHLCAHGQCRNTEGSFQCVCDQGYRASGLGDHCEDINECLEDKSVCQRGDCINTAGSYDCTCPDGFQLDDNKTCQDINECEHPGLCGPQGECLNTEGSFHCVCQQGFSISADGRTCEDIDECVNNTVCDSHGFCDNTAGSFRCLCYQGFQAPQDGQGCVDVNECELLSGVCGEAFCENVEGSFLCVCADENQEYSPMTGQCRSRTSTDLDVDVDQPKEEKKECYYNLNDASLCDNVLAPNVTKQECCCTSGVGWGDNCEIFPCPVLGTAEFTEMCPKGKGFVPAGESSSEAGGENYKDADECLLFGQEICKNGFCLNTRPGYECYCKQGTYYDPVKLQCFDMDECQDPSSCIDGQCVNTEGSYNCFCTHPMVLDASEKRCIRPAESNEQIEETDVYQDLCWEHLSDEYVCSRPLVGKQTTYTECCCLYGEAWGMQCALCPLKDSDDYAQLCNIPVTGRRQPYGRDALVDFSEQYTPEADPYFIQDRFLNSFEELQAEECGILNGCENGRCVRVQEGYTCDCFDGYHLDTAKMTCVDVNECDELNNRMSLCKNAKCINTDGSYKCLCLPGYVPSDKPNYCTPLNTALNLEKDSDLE
Description: as §1, §2, §3, §4, §5

[6] = molecular target: huLTBP3 proTGFβ1 (Homo sapiens, UniProt P01137+Q9NS15); assay: as above; parameters: biotin (complex biotinylated); conditions: Fab, huLTBP3 proTGFb1
Chain of huLTBP3 proTGFβ1 (P01137 30-390): as the sequence (P01137 30-390) above
Chain of huLTBP3 proTGFβ1 (Q9NS15 44-1303): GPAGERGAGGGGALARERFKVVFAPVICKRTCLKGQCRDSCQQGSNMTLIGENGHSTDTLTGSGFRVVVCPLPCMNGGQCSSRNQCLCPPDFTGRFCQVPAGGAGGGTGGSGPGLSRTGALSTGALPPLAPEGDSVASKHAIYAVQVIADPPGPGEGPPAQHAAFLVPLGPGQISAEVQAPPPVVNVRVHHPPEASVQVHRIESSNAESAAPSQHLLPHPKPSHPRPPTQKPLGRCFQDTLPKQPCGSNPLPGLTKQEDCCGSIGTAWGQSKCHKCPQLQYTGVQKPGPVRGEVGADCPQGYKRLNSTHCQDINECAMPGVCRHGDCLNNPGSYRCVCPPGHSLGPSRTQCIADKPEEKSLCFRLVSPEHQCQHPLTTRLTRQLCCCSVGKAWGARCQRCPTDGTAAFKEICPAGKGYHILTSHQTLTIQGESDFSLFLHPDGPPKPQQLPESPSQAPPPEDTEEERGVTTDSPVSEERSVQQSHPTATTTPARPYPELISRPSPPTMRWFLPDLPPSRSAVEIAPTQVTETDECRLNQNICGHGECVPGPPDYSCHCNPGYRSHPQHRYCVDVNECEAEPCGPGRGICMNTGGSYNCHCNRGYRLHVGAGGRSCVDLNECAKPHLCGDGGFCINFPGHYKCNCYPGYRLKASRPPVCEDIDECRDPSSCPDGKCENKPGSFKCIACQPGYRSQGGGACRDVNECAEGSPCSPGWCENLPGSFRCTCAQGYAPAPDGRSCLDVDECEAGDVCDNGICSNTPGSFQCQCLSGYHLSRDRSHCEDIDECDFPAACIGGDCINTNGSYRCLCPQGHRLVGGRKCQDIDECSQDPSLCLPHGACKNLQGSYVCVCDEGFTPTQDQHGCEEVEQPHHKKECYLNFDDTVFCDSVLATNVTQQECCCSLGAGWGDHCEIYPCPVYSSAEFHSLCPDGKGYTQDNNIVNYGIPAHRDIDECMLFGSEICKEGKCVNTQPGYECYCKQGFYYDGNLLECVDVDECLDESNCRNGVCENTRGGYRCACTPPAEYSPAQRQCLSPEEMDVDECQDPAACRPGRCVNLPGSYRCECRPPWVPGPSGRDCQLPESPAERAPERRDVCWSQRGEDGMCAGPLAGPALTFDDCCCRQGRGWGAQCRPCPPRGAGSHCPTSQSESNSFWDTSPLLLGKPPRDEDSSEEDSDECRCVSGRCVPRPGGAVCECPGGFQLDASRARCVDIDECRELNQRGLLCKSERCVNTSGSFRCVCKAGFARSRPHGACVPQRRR
Description: as §1, §2, §3, §4, §5

[7] = molecular target: huLRRC33 proTGFβ1 (Homo sapiens, UniProt P01137); assay: as above; parameters: biotin (complex biotinylated); modified human kappa light chain signal peptide (N); Histidine tag (C); conditions: Fab, huLRRC33 proTGFb1
Description: as §1, §2, §3, §4, §5

## O=C(NC1CCOCC1)c1ccc(-c2cc(-c3c[nH]nc3-c3ccccn3)ccn2)cc1 [GW788388]
[1]
  Toxicity in rats: induced physeal dysplasia in rats

B1: Ab2: TGFβ1 inhibitor test article of a four-week rat toxicology study; b152 gives same data for a context-independent TGFβ1 inhibitor antibody (antibody, V domains shown)
VH: QVQLVQSGAEVKKPGASVKVSCKASGYTFTSYGISWVRQAPGQGLEWMGWISAYNGNTNYAQKLQGRVTMTTDTSTSTAYMELRSLRSDDTAVYYCARAPLGNFDSWGQGTMVTVSS
VL: NFMLTQPHSVSESPGKTVTISCTRSSGSIASNYVQWYQQRPGSSPTTVIYEDNQRPSGVPDRFSGSIDSSSNSASLTISGLKTEDEADYYCQSYDSSNHPVVFGGGTKLTVL
[2]
  MTD: > 100 mg/kg
[2]; highest dose evaluated
  NOAEL: 100 mg/kg

B2: SR-AB42-HuFab: human Fab fragment of SR-AB42 used in SPR (antibody, V domains shown)
VH: QVQLVESGGGVVQPGRSLRLSCAASGFTFRSYVMHWVRQAPGKGLEWVAVISHEGSLKYYADSVKGRFTISRDNSKNTLYLQMNSLRAEDTAVYYCARPRIAARRGGFGYWGQGTLVTVSS
VL: NFMLTQPHSVSESPGKTVTISCTRSSGNIDNNYVQWYQQRPGSSPTTVIYEDNQRPSGVPDRFSGSIDSSSNSASLTISGLKTEDEADYYCQSYDYDTQGVVFGGGTKLTVL
[3]
  ka: 1.23e+08 M⁻¹ s⁻¹
  kd: 0.397 s⁻¹
[4]
  ka: 155000 M⁻¹ s⁻¹
  kd: 0.00604 s⁻¹
[5]
  ka: 543000 M⁻¹ s⁻¹
  kd: 0.000105 s⁻¹
[6]
  ka: 405000 M⁻¹ s⁻¹
  kd: 0.000142 s⁻¹
[7]
  ka: 80900 M⁻¹ s⁻¹
  kd: 0.00353 s⁻¹

B3: SR-AB43-HuFab: human Fab fragment of SR-AB43 used in SPR (antibody, V domains shown)
VH: QVQLVESGGGVVQPGRSLRLSCAASGFTFRSYVMHWVRQAPGKGLEWVAVISHEGSLKYYADSVKGRFTISRDNSKNTLYLQMNSLRAEDTAVYYCARPRIAARRGGFGYWGQGTLVTVSS
VL: NFMLTQPHSVSESPGKTVTISCTRSSGNIDYNYVQWYQQRPGSSPTTVIYEDNVRPSGVPDRFSGSIDSSSNSASLTISGLKTEDEADYYCQSYDSDNQRVVFGGGTKLTVL
[3]
  ka: 1.82e+09 M⁻¹ s⁻¹
  kd: 6.37 s⁻¹
[5]
  ka: 1.03e+06 M⁻¹ s⁻¹
  kd: 0.000284 s⁻¹
